Assay results published in patent US20100203046A1.

How the values were obtained:
[1] = target: human FcγRIII (CD16), CD16a (F158), on CD16-transfected Jurkat cells (human) (UniProt P08637); experiment: summary of Table 5 assays
[2] = target: human FcγRIII (CD16), CD16a (F158), on CD16-transfected Jurkat cells (human) (UniProt P08637); experiment: CD16 bridging assay, purified

human FcγRIII (CD16), CD16a (F158), on CD16-transfected Jurkat cells (human), sequence (P08637 17-254): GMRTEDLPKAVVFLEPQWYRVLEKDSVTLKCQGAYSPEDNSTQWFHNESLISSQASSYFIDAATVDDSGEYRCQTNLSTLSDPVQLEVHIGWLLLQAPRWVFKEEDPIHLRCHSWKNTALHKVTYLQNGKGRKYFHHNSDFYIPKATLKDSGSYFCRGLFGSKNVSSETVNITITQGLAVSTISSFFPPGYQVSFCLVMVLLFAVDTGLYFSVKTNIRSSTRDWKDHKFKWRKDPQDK

Substance: chCB6-huIgG1 Y296S (antibody)
- fold decrease in binding vs WT [1]: > 10 fold
- fold decrease in binding vs WT [2]: 20 fold
